Reference: publication PMC10756261 (Proceedings of the National Academy of Sciences of the …, 2023)

Biological target: T1, GST-RPA1a (Arabidopsis thaliana, UniProt Q9SKI4 1-640)
T1 sequence (looked up): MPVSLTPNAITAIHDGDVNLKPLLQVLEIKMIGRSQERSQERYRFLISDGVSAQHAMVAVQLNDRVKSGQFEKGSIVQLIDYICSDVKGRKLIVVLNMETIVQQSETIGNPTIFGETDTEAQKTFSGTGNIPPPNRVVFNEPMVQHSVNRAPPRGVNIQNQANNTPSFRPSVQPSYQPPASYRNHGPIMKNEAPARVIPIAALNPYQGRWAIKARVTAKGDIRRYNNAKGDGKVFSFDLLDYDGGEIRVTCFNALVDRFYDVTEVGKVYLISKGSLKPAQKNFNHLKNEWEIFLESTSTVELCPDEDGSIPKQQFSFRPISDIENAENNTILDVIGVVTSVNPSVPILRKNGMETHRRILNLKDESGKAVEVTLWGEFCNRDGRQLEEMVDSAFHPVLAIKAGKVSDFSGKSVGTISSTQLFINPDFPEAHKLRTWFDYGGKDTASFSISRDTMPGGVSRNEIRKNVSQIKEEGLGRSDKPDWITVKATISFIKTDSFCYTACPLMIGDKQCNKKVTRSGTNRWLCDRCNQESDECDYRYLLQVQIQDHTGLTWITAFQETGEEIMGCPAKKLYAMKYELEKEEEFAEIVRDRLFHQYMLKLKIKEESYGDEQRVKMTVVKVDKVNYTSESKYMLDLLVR
Experiment: pull-down

- binding result: binds
B1: His-Sumo-HEI10 (natural protein, Arabidopsis thaliana, UniProt F4HRI2 1-304, looked up)
chain: MRCNACWRDLEGRAISTTCGHLLCTEDASKILSNDGACPICDQVLSKSLMKPVDINPNEEWINMAMAGISPQILMKSAYRSVMFYIAQRDLEMQYKMNRVVAQCRQKCEGMQAKFSEKMEQVHTAYQKMGKRCQMMEQEVENLTKDKQELQEKFSEKSRQKRKLDEMYDQLRSEYESVKRTAIQPANNFYPRHQEPDFFSNPAVNMMENRETIRKDRSFFSPATPGPKDEIWPARQNSSNSGPFDISTDSPAIPSDLGNRRAGRGHPVYGGGGTANPQSTLRNLILSPIKRSQLSRSRPQLFTL
